From US6706266, “Oncostatin M antagonists” (SmithKline Beecham Corporation)
Values joined by “and” are separate entries in the source; they are usually repeats but may differ in a detail not shown here. Equal values may be shown once.

B1: wild type OSM-GST fusion (ligand)
chain: AAIGSCSKEYRVLLGQLQKQTDLMQDTSRLLDPYIRIQGLDVPKLREHCRERPGAFPSEETLRGLGRRGFLQTLNATLGCVLHRLADLEQRLPKAQDLERSGLNIEDLEKLQMARPNILGLRNNIYCMAQLLDNSDTAEPTKAGRGASQPPTPTPASDAFQRKLEGCRFLHGYHRFMHSVGRVFSKWGESPNRSRR
notes: pGEX-derived fusion; also called wt OSM-GST; GST-hOSM; not shown: glutathione S-transferase (GST) encoded by modified pGEX-3X (Pharmacia), N-terminal, up to the Factor Xa site region sho
B2: OSM-GST mutant G120A (ligand, not shown: a dimerising Fc or GST; large carriers; small tags and cut ends)
chain: AAIGSCSKEYRVLLGQLQKQTDLMQDTSRLLDPYIRIQGLDVPKLREHCRERPGAFPSEETLRGLGRRGFLQTLNATLGCVLHRLADLEQRLPKAQDLERSGLNIEDLEKLQMARPNILALRNNIYCMAQLLDNSDTAEPTKAGRGASQPPTPTPASDAFQRKLEGCRFLHGYHRFMHSVGRVFSKWGESPNRSRR
notes: Alanine mutant of m4; also called (20)G120; 20 G120A
B3: OSM-GST mutant Q20A (ligand)
chain: AAIGSCSKEYRVLLGQLQKATDLMQDTSRLLDPYIRIQGLDVPKLREHCRERPGAFPSEETLRGLGRRGFLQTLNATLGCVLHRLADLEQRLPKAQDLERSGLNIEDLEKLQMARPNILGLRNNIYCMAQLLDNSDTAEPTKAGRGASQPPTPTPASDAFQRKLEGCRFLHGYHRFMHSVGRVFSKWGESPNRSRR
notes: Alanine mutant of m4; also called (13)Q20A; 13 Q20A; not shown: Its linker is left out
B4: OSM-GST mutant D22A (ligand, not shown: a dimerising Fc or GST; large carriers; small tags and cut ends)
chain: AAIGSCSKEYRVLLGQLQKQTALMQDTSRLLDPYIRIQGLDVPKLREHCRERPGAFPSEETLRGLGRRGFLQTLNATLGCVLHRLADLEQRLPKAQDLERSGLNIEDLEKLQMARPNILGLRNNIYCMAQLLDNSDTAEPTKAGRGASQPPTPTPASDAFQRKLEGCRFLHGYHRFMHSVGRVFSKWGESPNRSRR
notes: Alanine mutant of m4; also called (15)D22; 15 D22
B5: OSM-GST mutant D26A (ligand, not shown: a dimerising Fc or GST; large carriers; small tags and cut ends)
chain: AAIGSCSKEYRVLLGQLQKQTDLMQATSRLLDPYIRIQGLDVPKLREHCRERPGAFPSEETLRGLGRRGFLQTLNATLGCVLHRLADLEQRLPKAQDLERSGLNIEDLEKLQMARPNILGLRNNIYCMAQLLDNSDTAEPTKAGRGASQPPTPTPASDAFQRKLEGCRFLHGYHRFMHSVGRVFSKWGESPNRSRR
notes: Alanine mutant of m4; also called (27)D26A; 27 D26A
B6: OSM-GST mutant G15A (ligand)
chain: AAIGSCSKEYRVLLAQLQKQTDLMQDTSRLLDPYIRIQGLDVPKLREHCRERPGAFPSEETLRGLGRRGFLQTLNATLGCVLHRLADLEQRLPKAQDLERSGLNIEDLEKLQMARPNILGLRNNIYCMAQLLDNSDTAEPTKAGRGASQPPTPTPASDAFQRKLEGCRFLHGYHRFMHSVGRVFSKWGESPNRSRR
notes: Alanine mutant of m4; also called (8)G15A; 8 G15A; not shown: Its linker is left out
B7: OSM-GST mutant N123A (ligand, not shown: a dimerising Fc or GST; large carriers; small tags and cut ends)
chain: AAIGSCSKEYRVLLGQLQKQTDLMQDTSRLLDPYIRIQGLDVPKLREHCRERPGAFPSEETLRGLGRRGFLQTLNATLGCVLHRLADLEQRLPKAQDLERSGLNIEDLEKLQMARPNILGLRANIYCMAQLLDNSDTAEPTKAGRGASQPPTPTPASDAFQRKLEGCRFLHGYHRFMHSVGRVFSKWGESPNRSRR
notes: Alanine mutant of m4; also called (22)N123A; 22 N123A
B8: OSM-GST mutant Q16A (ligand)
chain: AAIGSCSKEYRVLLGALQKQTDLMQDTSRLLDPYIRIQGLDVPKLREHCRERPGAFPSEETLRGLGRRGFLQTLNATLGCVLHRLADLEQRLPKAQDLERSGLNIEDLEKLQMARPNILGLRNNIYCMAQLLDNSDTAEPTKAGRGASQPPTPTPASDAFQRKLEGCRFLHGYHRFMHSVGRVFSKWGESPNRSRR
notes: Alanine mutant of m4; also called (9)Q16A; 9 Q16A; not shown: Its linker is left out
B9: OSM-GST mutant K8A (ligand, not shown: a dimerising Fc or GST; large carriers; small tags and cut ends)
chain: AAIGSCSAEYRVLLGQLQKQTDLMQDTSRLLDPYIRIQGLDVPKLREHCRERPGAFPSEETLRGLGRRGFLQTLNATLGCVLHRLADLEQRLPKAQDLERSGLNIEDLEKLQMARPNILGLRNNIYCMAQLLDNSDTAEPTKAGRGASQPPTPTPASDAFQRKLEGCRFLHGYHRFMHSVGRVFSKWGESPNRSRR
notes: Alanine mutant of m4; also called (2)K8A; 2 K8A
B10: OSM-GST mutant E9A (ligand, not shown: a dimerising Fc or GST; large carriers; small tags and cut ends)
chain: AAIGSCSKAYRVLLGQLQKQTDLMQDTSRLLDPYIRIQGLDVPKLREHCRERPGAFPSEETLRGLGRRGFLQTLNATLGCVLHRLADLEQRLPKAQDLERSGLNIEDLEKLQMARPNILGLRNNIYCMAQLLDNSDTAEPTKAGRGASQPPTPTPASDAFQRKLEGCRFLHGYHRFMHSVGRVFSKWGESPNRSRR
notes: Alanine mutant of m4; also called (3)E9A; 3 E9A
B11: OSM-GST mutant K19A (ligand)
chain: AAIGSCSKEYRVLLGQLQAQTDLMQDTSRLLDPYIRIQGLDVPKLREHCRERPGAFPSEETLRGLGRRGFLQTLNATLGCVLHRLADLEQRLPKAQDLERSGLNIEDLEKLQMARPNILGLRNNIYCMAQLLDNSDTAEPTKAGRGASQPPTPTPASDAFQRKLEGCRFLHGYHRFMHSVGRVFSKWGESPNRSRR
notes: Alanine mutant of m4; also called (12)K19A; 12 K19A; not shown: Its linker is left out

Tests used:
[1] = molecular target: T1, gp130-Fc fusion protein (human, UniProt P40189 23-619); assay: competition ELISA: OSM-GST titrated against plate-bound wt OSM for gp130-Fc; mean
T1 construct: extracellular domain; not shown: Fc fragment of human IgG1
T1 sequence (looked up): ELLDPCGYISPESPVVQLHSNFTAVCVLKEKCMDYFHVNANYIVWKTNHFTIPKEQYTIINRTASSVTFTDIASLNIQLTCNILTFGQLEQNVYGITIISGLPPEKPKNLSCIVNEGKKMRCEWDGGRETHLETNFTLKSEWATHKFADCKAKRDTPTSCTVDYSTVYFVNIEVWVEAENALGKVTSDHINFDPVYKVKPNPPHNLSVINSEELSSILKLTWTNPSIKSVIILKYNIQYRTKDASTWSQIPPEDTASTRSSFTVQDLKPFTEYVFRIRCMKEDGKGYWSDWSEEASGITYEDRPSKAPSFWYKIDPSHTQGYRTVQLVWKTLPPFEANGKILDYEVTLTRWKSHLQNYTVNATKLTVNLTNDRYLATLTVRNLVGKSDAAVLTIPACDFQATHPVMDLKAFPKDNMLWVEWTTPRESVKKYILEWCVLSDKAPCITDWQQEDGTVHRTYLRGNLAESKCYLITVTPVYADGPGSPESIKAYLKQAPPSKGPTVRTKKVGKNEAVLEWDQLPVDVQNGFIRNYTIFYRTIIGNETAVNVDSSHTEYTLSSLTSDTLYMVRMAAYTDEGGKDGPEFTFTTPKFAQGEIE
Description: (§1) Plates were washed (×6 in PBS 0.05% tween 20, using Skatron Plate washer), tapped dry and blocked to reduce non-specific binding (200 µl/well, 1% BSA/PBS). Following 1 h incubation (room temperature on a shaking platform) the plates were tapped dry and wild type (wt) or mutant OSM-GST from Example 9b added (50 µl/well, 20–0.002 µg/ml, titrated in 1%BSA/PBS). As a positive control polyclonal anti-human OSM antibody (R&D Systems) was also tested (20–0.02 µg/ml). […] Following a 5 h incubation (room temperature on a shaking platform) the plates were washed (×6) and developed using ELISA Amplification System (Life Technologies) as manufacturer's instructions and the OD measured at 490 nm.

[2] = molecular target: T2, gp130 on HepG2 B6 cells (UniProt P40189 23-918, limits assumed); assay: cell-based or functional assay
T2 sequence (looked up): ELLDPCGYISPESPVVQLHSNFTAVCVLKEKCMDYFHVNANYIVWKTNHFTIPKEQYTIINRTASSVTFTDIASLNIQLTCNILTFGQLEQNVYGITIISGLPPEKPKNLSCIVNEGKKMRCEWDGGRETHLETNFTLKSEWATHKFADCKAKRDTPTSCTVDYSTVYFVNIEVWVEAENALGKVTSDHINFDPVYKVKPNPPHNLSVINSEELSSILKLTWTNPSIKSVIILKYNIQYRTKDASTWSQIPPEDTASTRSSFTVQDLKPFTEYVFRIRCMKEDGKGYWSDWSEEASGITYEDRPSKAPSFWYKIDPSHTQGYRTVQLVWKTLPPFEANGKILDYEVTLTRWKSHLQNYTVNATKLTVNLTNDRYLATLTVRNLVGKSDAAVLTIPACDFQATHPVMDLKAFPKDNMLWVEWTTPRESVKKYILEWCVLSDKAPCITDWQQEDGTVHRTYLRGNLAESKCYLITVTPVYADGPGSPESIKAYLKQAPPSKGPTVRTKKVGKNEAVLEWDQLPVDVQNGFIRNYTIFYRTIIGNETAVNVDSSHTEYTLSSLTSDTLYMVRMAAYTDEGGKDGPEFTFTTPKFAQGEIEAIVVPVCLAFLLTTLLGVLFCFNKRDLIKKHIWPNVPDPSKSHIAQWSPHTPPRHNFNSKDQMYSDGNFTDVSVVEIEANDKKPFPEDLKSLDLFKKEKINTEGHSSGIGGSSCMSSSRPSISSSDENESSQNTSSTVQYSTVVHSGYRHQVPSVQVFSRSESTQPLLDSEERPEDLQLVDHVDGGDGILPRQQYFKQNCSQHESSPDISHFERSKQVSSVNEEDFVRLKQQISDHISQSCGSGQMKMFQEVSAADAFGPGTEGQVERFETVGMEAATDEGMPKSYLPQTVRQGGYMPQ

[3] = molecular target: T1, gp130-Fc fusion protein; assay: competition ELISA: OSM-GST titrated against plate-bound wt OSM for gp130-Fc; single experiment
Description: as §1

Binder	IC50 [1] [µg/mL]	sPAP HepG2 B6 assay: Expt 1 % (EC50 as % of wild type EC50) [2] [%]	sPAP HepG2 B6 assay: Expt 1 EC50 [2] [µg/mL]	sPAP HepG2 B6 assay: Expt 2 % (EC50 as % of wild type EC50) [2] [%]	sPAP HepG2 B6 assay: Expt 2 EC50 [2] [µg/mL]	sPAP HepG2 B6 assay: Mean % of wild type EC50 [2] [%]	IC50 [3]
B1	0.139	100	0.024	100	0.032	100	–
B2	3.09	–	–	–	–	–	3.65 µg/mL and 2.68 µg/mL and 2.95 µg/mL
B3	5	–	–	–	–	–	4.13 µg/mL and 5.57 µg/mL and 4.1 µg/mL and 6.2 µg/mL
B4	0.071	152	0.0367	50	0.016	101	0.04 µg/mL and 0.08 µg/mL and 0.092 µg/mL
B5	0.31	81	0.0195	79	0.0255	80	0.17 µg/mL and 0.28 µg/mL and 0.481 µg/mL
B6	0.155	87	0.021	55	0.0178	71	0.09 µg/mL and 0.203 µg/mL and 0.171 µg/mL
B7	2.96	157	0.0379	154	0.0497	156	–
B8	–	–	–	–	–	–	> 10 µg/mL
B9	0.138	66	0.016	38	0.0125	52	–
B10	0.156	98	0.0236	27	0.0089	62.5	0.208 µg/mL and 0.163 µg/mL and 0.097 µg/mL
B11	0.116	98	0.0236	37	0.0119	67.5	–
